Consider 1 substance from patent US20110052525A1, “Breaking Immunological Tolerance with a Genetically Encoded Unnatural Amino Acid” (THE SCRIPPS RESEARCH INSTITUTE, priority 2008, published 2011).

Assay [1] is described as follows: TR-FRET retinol binding assay of mRBP4 proteins. The note with it: retinol binding affinity, Cy5-labeled retinol. Here is the method:
The binding affinities of mRBP4 proteins were determined by a TR-FRET retinol binding assay.
WT and pNO2Phe mRBP4 mutant proteins were labeled with biotin using the Sulfo-NHS-Biotin kit (Pierce, Rockford, Ill.) according to manufacturer instructions. For determination of retinol binding activity, 10 nM biotin-labeled RBP4 was mixed with 1 nM Streptavidin-Europium chelate (LANCE® Eu-W8044 Streptavidin, Perkin Elmer, Foster City, Calif.). Increasing concentrations of Cy5-labeled retinol were added to the reaction and retinol binding was assessed by homogeneous time-resolved fluorescence resonance energy transfer (TR-FRET).
(Time-resolved FRET reads energy transfer from a long-lived donor to a nearby acceptor.)

Another assay concerns the target T1, mRBP4 (Mus musculus, UniProt Q00724).
T1 construct: The cDNA encoding murine RBP4 (aa 19-201); made in house; host or cells: E. coli BL21(DE3)
Put plainly: Serum IgG titers by ELISA after RIMMS immunization of mice with mRBP4 variants. It is filed as in vivo. Here is the method: 30 μl of 0.5 μg/ml protein was used to coat the wells of Maxisorp 384-well plates (Nunc, Rochester, N.Y.) overnight at 4° C. After washing with PBS+0.05% Tween 20 (PBST), the coated plates were blocked with 80 μl of 1% BSA in PBS, and washed again with PBST. The plates were sequentially incubated with 20 μl of primary antibody or serum diluted in 1% BSA in PBS, 20 μl of HRP-conjugated goat anti-mouse IgG or anti-mouse IgM (Jackson ImmunoResearch Laboratories, West Grove, Pa.), and 20 μl of TMB substrate (KPL, Gaithersburg, Md.), and read at an absorbance of 650 nm. Between incubations, the plates were washed at least six times with PBST.
Before measurement, serum samples were diluted 1:1,000 with 1% BSA in PBS buffer.
(In general: In an ELISA, binding on a coated surface is turned into a signal by an enzyme label.)

In general, Kd refers to a measure of binding affinity in units of concentration. Lower therefore signals tighter binding.

For the substance “WT mRBP4: wild-type murine retinol binding protein 4”, binding in assay [1] was put at a Kd of 0.171 µM. Moreover, the “serum IgG titers against WT mRBP4” value was “insignificant serum IgG titers” with mRBP4 (Bcl2 mice, RIMMS, ELISA (FIG. 19)) and “insignificant serum IgG titers” with mRBP4 (C57BL/6 mice, ELISA (FIG. 26)).
